This is an account of results in patent US20170333548A1.

Bounds are passed on as bounds.

What all share (assay): cell-based or functional assay
Assay [1] deals with DV4-EDIII-DV2 chimeric E glycoprotein (DENV4 backbone with DENV2 envelope domain III), on virus particles (Dengue virus 4/2).
Assay [2] deals with wild-type DENV2 E glycoprotein (Parent_WT_DENV2), on virus particles (Dengue virus 2) (UniProt P07564).
In assay [3] the target is wild-type DENV4 E glycoprotein (Parent_WT_DENV4), on virus particles (Dengue virus 4) (UniProt P09866).

Take human monoclonal antibody 2D22: the FRNT50 (Vero-81 focus reduction neutralization test) was 0.01 ng/µL in assay [1], 0.1 ng/µL in assay [2] and > 5 ng/µL in assay [3].
